Data as given in the nanobody polyreactivity screen of Harvey et al. (2022).

Test: yeast display, Sf9 membrane polyspecificity reagent, FACS + sequencing; frameworks hold sequencing errors
Summary of the method: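 In a synthetic yeast display library (Saccharomyces cerevisiae BJ5465), nanobody expression was induced with galactose for 36–48 hours. FACS gates were set low and high (top ~1%) using anti-HA fluorescence for expression and streptavidin fluorescence for binding of the Sf9 membrane reagent. Each polyreactivity label is drawn from the gate of origin.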

Sequence	polyreactivity (PSR sort gate)
QVQLVESGGGLVQAGGRLRLSCAASGRTFYGYAMGWYRQAPGKERELVASISRDGSTNYADSVNGRFTISRDNAKNTVYLQMHSLKPEDTAVYYCAADIWYYRYPIYYYSYDYWGPGTQVTVSS	low polyreactivity
QVQLVESGGGLVQAGGRLRLSCAASGRTFYVYTMGWYRQAPGPERELVAAIPSGGSTNYADSVKGRFTISRDNAKKTVYLQMNSLKPEDTAVYYCAARDSTVFKRYYYWGQGTQVTVSS	high polyreactivity
QVQLVESGGGLVQAGGRLRLSCAASGRTFYYNGMGWYRQAPGKERELVAAITSGGTTSYADSVKGRFTISRDNAKNTVYLQMNSLKPEDTAVYYCNADYWAVNYDYWGQGTQVTVSS	low polyreactivity
QVQLVESGGGLVQAGGRLRLSCAASGRTLGVYTMGWYRQAPGKERELVATISYNGGSTYYADSVKGRFTISRDNAKNTVYLQMNSLKPEDTAVYYCAKAYDTTLTYNYWGQGTQVTVSS	low polyreactivity
QVQLVESGGGLVQAGGRLRLSCAASGSIFDRNAMGLYRQAPGKESELVATITWYGVSTYYADSVKGRFTISRDNAKNTVYLQMNSLKPEDTAVYYCNADYSYRHWYDPGHYGEAMGYWGQGTQVTVSS	low polyreactivity
QVQLVESGGGLVQAGGRLRLSCAASGSIFFHYAMGWYRQAPGKERERVAAITWDGGSTYYADSVKGRFTISRDNAKNTVYLQMNSLKPEDTAVYYCNADQDLSTDEDEYWGQGTQVTVLS	low polyreactivity
QVQLVESGGGLVQAGGRLRLSCAASGSIFGVYDMGWYRQAPGKERELVAVINSNGGSTYYADSVKGRFTISRDNAKNTVYLQMNSLKPEDTAVYYCAAERATVKFGYWGQGTQVTVSS	low polyreactivity
QVQLVESGGGLVQAGGRLRLSCAASGSIFRRYAMGWYRQAPGKERELVAAISSTPITYYADSVKGRFTISRDNAKNTVYLQMNSLKPEDTAVYYCAAELLLSYYYGLEDDYWGQGTQVTVSS	low polyreactivity
QVQLVESGGGLVQAGGRLRLSCAASGSIFRSNVMGWYIQAPGKEREMVASITSGGITYADSVNGRFTISRDNAQNTVYLQMNSLKPEDTAVYYCDTVRRYAMSPYKGRYDYWGQGTQVTVSS	low polyreactivity
QVQLVESGGGLVQAGGRLRLSCAASGSIFSHNVMGWYRQAPGKEGELVAAITYRGGSTYYADSVKGRFTISRDNAKNTVYLQMNSLKPEDTAVYYCSALNEVSTYHGFDYWGQGTQVTVSS	low polyreactivity
QVQLVESGGGLVQAGGRLRLSCAASGSIFSYYAMGWYRQAPGKERELVAAITANGGSTYYADSVKGRFTISRDNAKNTVYLQMNSLKPADTAVYYCAADYYWGYDCGQGTQVTVSS	low polyreactivity
QVQLVESGGGLVQAGGRLRLSCAASGSIFTYNAMGWYIQAPGKERELVAAISASGGRTYYADSVKGRFTISRDNAKNTVYLQMNILKPEDTAVYYCAARIRVSGLRRFDYWGQGTQVTVSS	high polyreactivity
QVQLVESGGGLVQAGGRLRLSCAASGSIFVIYGMGWYRQAPGKERELVAAISDRGGSTYYADSVKGRFTISRDNAKNTVYLQMNSLKPEDTAVYYCAADRQYRYATRYDYWGQGTQVTVSS	low polyreactivity
QVQLVESGGGLVQAGGRLRLSCAASGSIFYHYAMGWSRQAPGKERELVAAISQSGGGTYYADSVKGRFTISRDYAKNTVYLQMNSLKPEDTAVYYCAADRTGPYDYWGQGTQVTVSS	high polyreactivity
QVQLVESGGGLVQAGGRLRLSCAASGSIIHYYTMGWSRQAPGKERELVAAINWSGTRTYYADSVKGRFTISRDNAKNTVYLQMNSLKPEDTAVYYCAAESYYPAGIRVYWGQGTQVTVSS	high polyreactivity
QVQLVESGGGLVQAGGRLRLSCAASGSILGAYTMGWYRQAPGKERELVAAITRRGGSTYYSDSVKGRFTISRDNAKNTVYLQMNSLKPEDTAVYYCNAEYGVWYDYLVGPYDYWGQGNQVTVSS	low polyreactivity
QVQLVESGGGLVQAGGRLRLSCAASGSTFGGNAMGWSRQAPGKERELVATISNSGGRTYYADSVKGRFTISRDNAKNTVYLQMNSLKPEDTAVYYCAADHPAFGPGYSFDYWGQGTQVTVSS	low polyreactivity
QVQLVESGGGLVQAGGRLRLSCAASGSTFGLNAMGWYRQAPGTERELVAAITSRGTRTYYADSVKGRFTISRDNAKNTVYLQMNSLKTEDTAGYKCAKDSGATRYGEYDYWGQGTQVTVSS	low polyreactivity
QVQLVESGGGLVQAGGRLRLSCAASGSTFLSNDMGWYRQAPGKERELVAAISQSGGNTYYADSVKGRFTISRDKAKNTVYLQMNSVKPEDTAVYYWAALDYWVQGTQVTVSS	low polyreactivity
QVQLVESGGGLVQAGGRLRLSCAASGSTFVLNDRGWYRQPPGKEREFVAAIDTSGGTTSYADSVKGRFTISRDNAKNTVYLQMNSLKPEDTAVYYCAALWFTRVHLFDSWGQGPQVTVSS	low polyreactivity
QVQLVESGGGLVQAGGRLRLSCAASGSTIKFNAMGWYRQAPGKERELVAAISRGGRTNYADSVKGRFTISRDNAKYTVYLQMNSLKPEDTAVYKCAKDVAGLFHVGALYYYWGQGTQVTVSS	low polyreactivity
QVQLVESGGGLVQAGGRLRLSCAASGSTIPPSAMGWYRQSPGKERELVAAITSGGSTYYADSVKGRLTISRDNAKNTVYIQLNSLKPEDTAVYYCNADQQTIRSAKNDYWGQGTQVTVSS	low polyreactivity

Sequence	polyreactivity (PSR sort gate)
QVQLVESGGGLVQAGGRLRLSCAASGSTITYYTMGWYRQAPGKERELVAAISGSGGRTYYADSVKGRFTISRDNAKNTVYLQMNSLKPEDTAVYYCAAVYQLSRYDYWGQGTQVTVSS	high polyreactivity
QVQLVESGGGLVQAGGRLRLSCAASGSTLSLYDMGRYRQAPGKERELVAAITSSGGTYYADSVKGRFTISRDNAKNTVFLQMKSLKPEDTAVYYCNAYAKDARSYGFHRVNYWGQGTQVTVSS	high polyreactivity
QVQLVESGGGLVQAGGRLRLSCAASGSTNYRYAMRWYRQAPGKERELVATISRTGARTNYADSVKGRFTISRDNAKNTVYLQMNSLKPEDTAVYYCAASAPYIYYWGQGTQVTVSS	high polyreactivity
QVQLVESGGGLVQAGGRLRLSCAASGSTSTLYAMGWYRQAPGKERELVAAISKSGGRTYYADSVKGRFTSSRDNAKNTVDLQMNSLKPEDTAVYYCAALAVYPRRFDYWGQGTQVTVSS	high polyreactivity
QVQLVESGGGLVQAGGRLRLSCAASGYIFKNYAMGWDRQAPGKERELVATINYSGGGTYYADSVKGRFTISRDNAKNTVYLQMNSLKQEDTAVYYCAAREKYISYSYYYWGQGTQVTVSS	high polyreactivity
QVQLVESGGGLVQAGGRLRLSCAASVGIFYYYAMGWYRQAPGKERELVATITYTGGSTYADSVKGRFTISRDNAKNTVYLQMNSLKPEDTAVYYCAADGRSRSYYGYDHWGQGTQVTVSS	low polyreactivity
QVQLVESGGGLVQAGGRLRLSCAASVRTFYYYVMGWYRQEPGNERELVAAISSGGSTYYADSVKGRFTISRDNAKNTVYLQMNSLKPEDTAVYYGAATKRYRDSYDYDYWGQGTQVTVSS	high polyreactivity
QVQLVESGGGLVQAGGRLRLSCAAYGSIFDFYAMGWYRQAPGKERELVAAISGSGGSTYYADSVKGRFTISRDNAKNTVYLQMNSLKPEDTEVYYCSYYYWGQGTQETVSS	low polyreactivity
QVQLVESGGGLVQAGGRLRLSCADSGSTFLYNAMGWYRQAPGKERELVAAITSDGSTSYADSVKGRFTISRDNAKNTVYLQMNSLKPEDTALYYSAAYGFQHLSSLPFSRHNYWGQGTQVTVSS	low polyreactivity
QVQLVESGGGLVQAGGRLRLSCADSGSTFWSYAIGWYRQSPGKEREFVAAISSSDDSTYYADSVKGRFTISRDNAKNTVYLQMNSLKPEDTAVYYCATSWYIYPFDYWGQGTQVTVSS	low polyreactivity
QVQLVESGGGLVQAGGRLRLSCAPSGLIFYGYAMGWYRQAPGKERELVAAISGSGGRTYYADSVKGRYTISRDNAKNTVYLEMNSLKPEDSAVYYCAGKVPRFGAPGVNYWGQGTQVTVSS	high polyreactivity
QVQLVESGGGLVQAGGRLRLSCPASGLIFSYYAMGWYRQEPGKERELVAAISRGGSTNYADSVKGRFTISRDNAKNTVYLQMNSLKPEDTAVYYCAARFVLRRDYGYWGQGTQVTVSS	high polyreactivity
QVQLVESGGGLVQAGGRLRLSCPASGRTFPPYAMGWYRQAPGKERELVGAISRRAGTTYYADSVKGRFTISRDNAKNTVYLQMNSLKPEDTAVYYCAALTESSSYGYWGLGTQVTVSS	low polyreactivity
QVQLVESGGGLVQAGGRLRLSSAASGFIFAYNAMGWYRQGPGKERELVASIRTRGGSTYYADSVKGRFTISRDNAKNTVYLQMNSLKPEDTSVYYCAARPFPRRYDYWGQGSQVTVSS	low polyreactivity
QVQLVESGGGLVQAGGRLRLSSAASGFIFYYYAMGWYREAPGKERELVAAISTDGGSTFYADSVKGRFTISRDNAKNTVYLQMNSLKPEDTAVYYCNAPYYGWGYWPLEYIRYEYWGQGTQVTVSS	low polyreactivity
QVQLVESGGGLVQAGGRLRLSSAASGSTFGYYAMGWYRQAPGKERELVAAISAGGGSTYYADSVKGRFTISRDNAKNTVYLQMISLKPEDTAVYYCAARGPHIPVKTYDYWGQGTQVTVSS	high polyreactivity
QVQLVESGGGLVQAGGRLRLTCAASARTIVLNPMGWYRQAPGKERELVAAISSGGSTNYADSVKGRFTISRDNAKNTVYLQMNSLNPEDTAVYYCAGQDVNLYSAYYYWGQGTQVTVSS	low polyreactivity
QVQLVESGGGLVQAGGRLRLTCAASGCTFFTNSMGWYRQAPGKERELFGAITVSGSTYYADSVKGRFTFSRDNAKNTVYLQMNSLNPEDTAVYYCAAVFWRRQYGYYIFTTLDYWGHGTQVTVSS	high polyreactivity
QVQLVESGGGLVQAGGRLRLTCAASGLTFERHAMGWYSQARGKERDVVAAWSGGGTYYADSVKGRFTISRDNAKNTVYLHLNSLKPQDTAVYYCAADYRYYLSIGVNSWGQGTQVTVSS	low polyreactivity
QVQLVESGGGLVQAGGRLRLTCAASGSIFGSYAMGWYRQEPGIERELVAAIRGRGGNTYYADSVKGRFTISRDNAKNTVYLQMNSLKPQDTAVYYCAAQSFAQYGWRYGYWGQGTQVTLSS	high polyreactivity
QVQLVESGGGLVQAGGRLRVSCAASGRTFYYYGMGWYRQAPGKESELVATISWSGGSTYYADSVKGRFTISRDNAKNTVYLQMNSLKPEDTEVYYCAADGQFLYDHIEVDYWGQGTQVTVSS	low polyreactivity
